Reference: patent US20050069951A1 (KARO BIO, published 2005)
Where no end group is shown, it is not given here. The star is where a group is joined. Biotin = O=C1N[C@H]2[C@H](CS[C@H]2CCCCC(=O)*)N1

Key:
[1] = target: T1, Agrobacterium faecalis beta-glucosidase (Agrobacterium faecalis, UniProt P12614 1-459, biotinylated with Sulfo NHS-LC-LC biotin, sites not stated); experiment: phage ELISA, biotinylated target on streptavidin plate
T1 construct: captured on streptavidin beads or plates; also called β-glucosidase
T1 sequence: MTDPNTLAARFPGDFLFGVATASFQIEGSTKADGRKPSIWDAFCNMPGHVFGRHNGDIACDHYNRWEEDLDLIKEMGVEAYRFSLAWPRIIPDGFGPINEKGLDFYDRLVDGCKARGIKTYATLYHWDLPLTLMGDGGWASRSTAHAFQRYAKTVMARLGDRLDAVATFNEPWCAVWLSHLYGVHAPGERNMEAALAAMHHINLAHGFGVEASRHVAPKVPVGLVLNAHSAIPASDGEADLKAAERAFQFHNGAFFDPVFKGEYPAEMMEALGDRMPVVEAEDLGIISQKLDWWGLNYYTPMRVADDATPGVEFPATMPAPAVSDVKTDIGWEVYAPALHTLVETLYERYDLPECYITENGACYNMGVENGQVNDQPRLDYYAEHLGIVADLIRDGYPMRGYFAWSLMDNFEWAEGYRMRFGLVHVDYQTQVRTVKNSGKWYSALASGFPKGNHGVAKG

[2] = target: T2, E. coli proline tRNA synthetase (E. coli, UniProt P16659 1-572); experiment: phage ELISA on immobilized ProRS and a variety of proteins
T2 construct: also called ProRS; E. coli ProRS
T2 sequence: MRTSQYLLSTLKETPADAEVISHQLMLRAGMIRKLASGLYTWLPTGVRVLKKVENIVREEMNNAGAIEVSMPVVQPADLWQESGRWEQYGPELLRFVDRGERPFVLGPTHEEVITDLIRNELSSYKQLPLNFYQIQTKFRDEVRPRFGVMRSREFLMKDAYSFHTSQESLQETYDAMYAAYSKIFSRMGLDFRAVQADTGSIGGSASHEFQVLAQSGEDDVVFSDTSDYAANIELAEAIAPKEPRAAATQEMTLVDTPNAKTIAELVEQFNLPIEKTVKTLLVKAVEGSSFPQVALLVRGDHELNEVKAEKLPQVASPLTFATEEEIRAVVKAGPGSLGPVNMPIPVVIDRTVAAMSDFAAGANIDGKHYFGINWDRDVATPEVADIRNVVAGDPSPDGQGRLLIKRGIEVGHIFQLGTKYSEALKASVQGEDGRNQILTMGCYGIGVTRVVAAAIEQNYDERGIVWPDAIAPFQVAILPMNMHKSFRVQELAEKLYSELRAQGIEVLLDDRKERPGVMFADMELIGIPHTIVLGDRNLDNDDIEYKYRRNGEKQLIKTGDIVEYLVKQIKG

[3] = target: T3, Yeast alcohol dehydrogenase (yeast, UniProt P00330 2-348); experiment: cross reactivity phage ELISA
T3 sequence (looked up): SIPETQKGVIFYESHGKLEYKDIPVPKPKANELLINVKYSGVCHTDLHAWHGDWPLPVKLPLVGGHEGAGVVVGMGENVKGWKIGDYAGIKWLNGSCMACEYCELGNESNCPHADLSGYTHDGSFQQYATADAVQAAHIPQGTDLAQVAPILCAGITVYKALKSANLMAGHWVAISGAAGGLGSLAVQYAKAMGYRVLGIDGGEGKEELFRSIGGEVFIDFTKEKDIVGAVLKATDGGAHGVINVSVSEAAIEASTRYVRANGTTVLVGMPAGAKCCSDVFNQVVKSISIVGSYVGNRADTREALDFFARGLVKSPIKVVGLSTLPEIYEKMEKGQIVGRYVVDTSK

[4] = target: T2, E. coli proline tRNA synthetase; experiment: ELSA, immobilized ProRS
[5] = target: streptavidin (UniProt P22629 37-163, limits assumed); experiment: ELSA: biotinylated peptide pre-complexed with SA-AP, immobilized target
Method: (§1) Target protein was immobilized in microtiter wells by incubating 0.5-2.0 μg per well in 100 μl of 0.1 M NaHCO₃ overnight at 4° C. […] During the 1 hour blocking period, the SA-AP:surrogate ligand conjugate was prepared by mixing 2 μg SA-AP and 50 pmol biotinylated surrogate ligand for each well of target protein. (This corresponds to a 1:1 ratio of biotinylated peptide to biotin binding sites.) The mixture was incubated at room temperature for 15-20 minutes and then diluted with Tris-buffered saline-Tween-20 (TBST) 10 mM Tris-HCl, pH 8.0, 150 mM NaCl, 0.05% Tween-20 such that there was 100 μl of conjugate per well.
(§2) After blocking, the wells were washed once with 200 μl TBST. The surrogate ligand:SA-AP conjugate was then added (100 μl/well) and incubated at room temperature for 2 hours. […] The assay was developed by adding 100 μl of pNPP and incubating at room temperature for 5-10 minutes. The absorbance was read at 405 nm.

[6] = target: T4, GST (UniProt P08515 1-218 = GST); experiment: as above
T4 construct: also called glutathione-S-transferase
Method: as §1, §2

[7] = target: T5, biotinylated ProRS (E. coli, UniProt P16659 1-572, biotinylated with Sulfo NHS-LC-LC biotin, sites not stated); experiment: phage ELISA, biotinylated target
T5 construct: also called biotinylated E. coli ProRS
T5 sequence: T2 sequence

[8] = target: T6, carboxypeptidase B from pig pancreas (pig, UniProt P09955 111-416); experiment: cross reactivity phage ELISA
T6 sequence (looked up): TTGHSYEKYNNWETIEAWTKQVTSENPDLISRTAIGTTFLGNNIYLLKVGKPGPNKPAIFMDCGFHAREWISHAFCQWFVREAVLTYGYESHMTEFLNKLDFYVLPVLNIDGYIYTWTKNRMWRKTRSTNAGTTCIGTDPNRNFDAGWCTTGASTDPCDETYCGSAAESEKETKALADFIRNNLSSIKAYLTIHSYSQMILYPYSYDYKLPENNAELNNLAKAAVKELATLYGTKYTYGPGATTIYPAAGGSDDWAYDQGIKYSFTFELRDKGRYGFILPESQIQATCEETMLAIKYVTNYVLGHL

[9] = target: T2, E. coli proline tRNA synthetase; experiment: ELSA, immobilized targets (legend of FIG. 17)
[10] = target: T2, E. coli proline tRNA synthetase; experiment: tRNA charging assay (enzyme inhibition), competitive in respect to proline

T4 sequence (P08515 whole entry): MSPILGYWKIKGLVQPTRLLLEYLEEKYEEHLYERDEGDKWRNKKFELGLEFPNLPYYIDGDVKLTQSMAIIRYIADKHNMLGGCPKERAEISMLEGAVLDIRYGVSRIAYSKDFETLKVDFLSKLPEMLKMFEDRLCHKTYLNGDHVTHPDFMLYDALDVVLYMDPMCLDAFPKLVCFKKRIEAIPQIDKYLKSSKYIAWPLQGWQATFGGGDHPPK
Chain of streptavidin (P22629 37-163 limits assumed): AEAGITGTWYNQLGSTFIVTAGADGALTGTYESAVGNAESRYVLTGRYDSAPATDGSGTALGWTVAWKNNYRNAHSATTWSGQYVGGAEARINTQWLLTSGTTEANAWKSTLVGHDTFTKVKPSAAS

## SSSTDWLNVWRQLSR (on M13 phage; group 1) [phage-displayed peptide SSSTDWLNVWRQLSR (N library)]
[1]
  binding result: binds

## SRWCEVWPDKRWCSR (on M13 phage) [ProRS-binding phage peptide SRWCEVWPDKRWCSR (P library)]
[2]
  binding result: binds

## SVSVGMKPSPRP (on M13 phage) [phage-displayed peptide SVSVGMKPSPRP (PHD12 library)]
[3]
  fold ELISA signal on the specific target vs any other targets tested: ≥ 10 fold

## SSWQGNVLLGNWISR (on M13 phage) [phage-displayed peptide SSWQGNVLLGNWISR (L library)]
[3]
  fold ELISA signal on the specific target vs any other targets tested: ≥ 10 fold

B1: ProRS-binding phage peptide SRVCAIWPDLDGCSR (X10C library) (peptide)
peptide: SRVCAIWPDLDGCSR
notes: on M13 phage; SR linkers included as printed; also called most often isolated phage
[2]
  binding result: binds

## SSASYAPWPIYFASR (on M13 phage; group 2) [phage-displayed peptide SSASYAPWPIYFASR (W library)]
[1]
  binding result: binds

B2: biotinylated UL44 surrogate ligand peptide (peptide)
peptide: Biotin-SGSGEHVCSWGWGRC
modifications: not fully specified (bridges); cysteine pairing not given here
notes: synthetic; pre-complexed with streptavidin alkaline phosphatase (SA-AP) in the ELSA; also called UL44 BioKey
[4]
  binding result: no binding
[5]
  binding result: no binding
[6]
  binding result: no binding

## SSERGSGDRGEKGSR (on M13 phage) [phage-displayed peptide SSERGSGDRGEKGSR (D library)]
[7]
  binding result: binds

## SRWCELWSQDIGCSR (on M13 phage) [ProRS-binding phage peptide SRWCELWSQDIGCSR (X10C library)]
[2]
  binding result: binds

## SSGAFKPWPVYSFSR (on M13 phage; group 2) [phage-displayed peptide SSGAFKPWPVYSFSR (W library)]
[1]
  binding result: binds

## SREWHFWRDYNPTSR (on M13 phage) [phage-displayed peptide SREWHFWRDYNPTSR (R library)]
[7]
  binding result: binds

## SSNYWWQSPVLSRHSR (on M13 phage) [phage-displayed peptide SSNYWWQSPVLSRHSR (CWL library)]
[3]
  fold ELISA signal on the specific target vs any other targets tested: ≥ 10 fold

## SSWGDYFNWRDGLSR (on M13 phage) [phage-displayed peptide SSWGDYFNWRDGLSR (N library)]
[8]
  fold ELISA signal on the specific target vs any other targets tested: ≥ 10 fold

## SSATDWGRVYSILSR (on M13 phage; group 1) [phage-displayed peptide SSATDWGRVYSILSR (R library)]
[1]
  binding result: binds

## SRDWGFWRLPESMASR (on M13 phage) [phage-displayed peptide SRDWGFWRLPESMASR (CWL library)]
[7]
  binding result: binds

## LYSWPDEQYERP (also: biotinylated, position not given here, also called TyrRS1B; TyrRS BioKey) [biotinylated peptide TyrRS1]
[9]
  binding result: no binding

## SSLLNESRLQWSTSR (on M13 phage) [phage-displayed peptide SSLLNESRLQWSTSR (R library)]
[3]
  fold ELISA signal on the specific target vs any other targets tested: ≥ 10 fold

## SSFRELKPGWWSYSR (on M13 phage) [phage-displayed peptide SSFRELKPGWWSYSR (P library)]
[8]
  fold ELISA signal on the specific target vs any other targets tested: ≥ 10 fold

## SRDWGFWDWGVDRSR (on M13 phage) [phage-displayed peptide SRDWGFWDWGVDRSR (D library)]
[7]
  binding result: binds

## SRWCSLRPQDEGCSR (on M13 phage) [ProRS-binding phage peptide SRWCSLRPQDEGCSR (X10C library)]
[2]
  binding result: binds

## SSEPFSVWPIYKHSR (on M13 phage; group 2) [phage-displayed peptide SSEPFSVWPIYKHSR (W library)]
[1]
  binding result: binds

B3: non-biotinylated ProRS peptide (peptide)
peptide: VCAIWPDLDGC
notes: also called non-biotinylated ProRS surrogate ligand
[10]
  Ki: > 500 µM

## SSTSLPFNRWPIYSR (on M13 phage; group 2) [phage-displayed peptide SSTSLPFNRWPIYSR (N library)]
[1]
  binding result: binds

## SSSFKPWPIYLGSSR (on M13 phage; group 2) [phage-displayed peptide SSSFKPWPIYLGSSR (P library)]
[3]
  fold ELISA signal on the specific target vs any other targets tested: ≥ 10 fold

## SSQTDWRKIFQSLSR (on M13 phage; group 1) [phage-displayed peptide SSQTDWRKIFQSLSR (K library)]
[1]
  binding result: binds

## SRQVEVFKPWPVYSR (on M13 phage; group 2) [phage-displayed peptide SRQVEVFKPWPVYSR (K library)]
[3]
  fold ELISA signal on the specific target vs any other targets tested: ≥ 10 fold

## SRWCDIWPDTGSCSR (on M13 phage) [ProRS-binding phage peptide SRWCDIWPDTGSCSR (P library)]
[2]
  binding result: binds

## SSSVPFAPWPVYASR (on M13 phage; group 2) [phage-displayed peptide SSSVPFAPWPVYASR (P library)]
[1]
  binding result: binds

## SRLLEVSPGWWQMSR (on M13 phage) [phage-displayed peptide SRLLEVSPGWWQMSR (P library)]
[8]
  fold ELISA signal on the specific target vs any other targets tested: ≥ 10 fold

## SRLCEVWPQTAGCSR (on M13 phage) [ProRS-binding phage peptide SRLCEVWPQTAGCSR (X10C library)]
[2]
  binding result: binds

## SRLCDIMPQTVGCSR (on M13 phage) [ProRS-binding phage peptide SRLCDIMPQTVGCSR (P library)]
[2]
  binding result: binds

## SRWCELWPEGSGCSR (on M13 phage) [ProRS-binding phage peptide SRWCELWPEGSGCSR (P library)]
[2]
  binding result: binds
